Measured values published in patent publication US20240344078A1 (AARHUS UNIVERSITET, published 2024).

How the values were obtained:
[1] = target: T1, Avi-tagged NFR5 (residues 276-595, Avitag) (Lotus japonicus, biotinylated Avi tag implied by capture on streptavidin biosensors; site not given); assay: BLI, Avi-tagged NFR5 on streptavidin biosensors, Nb200 5-0.08 µM, 1:1 association/dissociation fit
T1 construct: NFR5 intracellular domain (juxtamembrane, pseudokinase, C-terminal tail) with an N-terminal Avi tag, immobilised on streptavidin biosensors; also called NFR5 Avitag; AviTag NFR5
T1 chain: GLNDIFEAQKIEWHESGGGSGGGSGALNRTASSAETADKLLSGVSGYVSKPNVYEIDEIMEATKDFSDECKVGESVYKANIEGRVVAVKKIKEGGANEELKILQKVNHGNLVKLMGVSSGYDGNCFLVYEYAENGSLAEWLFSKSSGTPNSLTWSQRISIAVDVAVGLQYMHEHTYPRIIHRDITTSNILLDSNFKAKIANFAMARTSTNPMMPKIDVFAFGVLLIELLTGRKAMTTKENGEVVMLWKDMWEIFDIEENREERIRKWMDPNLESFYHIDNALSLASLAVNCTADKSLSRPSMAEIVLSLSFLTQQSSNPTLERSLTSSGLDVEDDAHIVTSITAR
Excerpt: (§1) The x-axis indicates time in seconds. The y-axis indicates the wavelength shift in nm. […] The x-axis indicates time in seconds. The y-axis indicates the wavelength shift in nm. […] Blue dotted lines demarcate fractions with complex formation, labelled as P1. Elution of excess Nb200 is labelled as P2. The x-axis indicates volume through the column in mL. The y-axis indicates the UV₂₈₀ milli absorbance units (mAu). […] The first lane, “M”, contains a molecular weight ladder, labeled to the left of the gel picture with the respective kDa amount. Lane “Inp” contains a sample of the input. Lanes “P1” contain fractions from the P1 complex section of the purification. Lanes “P2” contain fractions from the P2 section of the purification with excess Nb200. The black horizontal line over lanes indicates fractions pooled. Arrows indicate the proteins of interest.
(§2) Streptavidin (SA) biosensors (kinetic quality, Molecular devices, FortéBio) were equilibrated in Binding buffer (50 mM Tris-HCl pH 8, 200 mM NαCl, 0.01% TWEEN® 20) before use. AviTag™ NFR5 in Binding buffer was immobilized on SA sensors until 0.1 nm using an Octet® RED96 (Molecular devices, ForteBio) at 25° C. […] Unspecific binding was measured to a biotin loaded SA sensor and was subtracted from the interaction datasets.

[2] = target: T2, C-terminal tailless NFR5 (residues 276-563) (Lotus japonicus); assay: size exclusion chromatography of NFR5 (residues 276-563) mixed with an excess of Nb200, fractions analysed by SDS-PAGE (co-elution)
T2 construct: Construct used for the SEC complex and the crystal structure with Nb200 (PDB 8S79)
T2 chain: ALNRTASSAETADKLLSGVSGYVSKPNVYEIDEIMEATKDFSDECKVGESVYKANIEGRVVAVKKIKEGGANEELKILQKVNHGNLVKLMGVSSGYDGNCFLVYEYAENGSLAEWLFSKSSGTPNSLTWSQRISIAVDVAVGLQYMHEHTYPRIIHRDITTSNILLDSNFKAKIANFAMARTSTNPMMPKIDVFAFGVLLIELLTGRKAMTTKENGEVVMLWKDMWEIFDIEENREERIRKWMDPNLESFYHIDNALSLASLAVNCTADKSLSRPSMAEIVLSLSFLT

[3] = target: T1, Avi-tagged NFR5 (residues 276-595, …); assay: bio-layer interferometry; Avi-tagged NFR5 immobilised on streptavidin biosensors, Nb200 control in solution at 0.08-5 µM
Excerpt: as §1, §2

[4] = target: the molecule itself; assay: dynamic light scattering, concentration series 1-6 mg/ml, self-interaction in solution
Excerpt: Diffusion coefficients/concentration plots were used to derive self-interaction parameters, kSI (also known as the diffusion interaction parameter kD), by linear regression in GraphPad prism 9 (Graphstats Technologies).
It was hypothesized that the exposed juxtamembrane motif could function as a hydrophobic interaction surface. […] The NFR5 pattern resembled the pattern formed by the well-known oligomer forms of Bovine Serum Albumin (FIG. 7B). Dynamic light scattering (DLS) was used to measure the in solution particle size dispersity of the NFR5 sample. […] To investigate whether this self-interaction was mediated by the juxtamembrane motif, two variants were generated with substitutions in either αA (L290E, L291E) or αA′ (V294E, Y297E, V298E) that were referred to as 2E (SEQ ID NO: 148) and 3E (SEQ ID NO: 149), respectively (FIG. 7A). It was hypothesized that the introduction of charged glutamates would abolish hydrophobic interactions engaged by the motif. […] A second DLS experiment was performed to compare the in solution self-interaction of wildtype NFR5 with 2E and 3E by measuring their self-interaction parameter (kSI) over a protein concentration series (FIGS. 7D-7F). […] Next an N-terminal Avi-tagged NFR5 was purified in order to immobilize the NFR5 intracellular domain on a streptavidin biosensor (FIGS. 4A-4D, 7G). The immobilized NFR5 was used in a bio-layer interferometry experiment to measure interaction to WT, 2E, and 3E variants (FIGS. 7H-7J).

[5] = target: T1, Avi-tagged NFR5 (residues 276-595, …); assay: bio-layer interferometry; Avi-tagged NFR5 WT immobilised on streptavidin biosensors, NFR5 WT in solution at 0.07-3.6 mg/mL
Protocol: (§3) An Avi-tagged version of NFR5 WT (purple) was purified and immobilized on streptavidin biosensors (top box with four-pointed stars representing streptavidin). NFR5 loaded biosensors were assayed against NFR5 WT, 2E (SEQ ID NO: 148), and 3E (SEQ ID NO: 149). […] A clear concentration dependent interaction to NFR5 WT was measured. The x-axis indicates time in seconds; the y-axis indicates nm. […] No interaction was observed. The x-axis indicates time in seconds; the y-axis indicates nm.
as §2, with “datasets. Data was processed and analyzed in FortéBio Data Analysis 7 (Molecular devices, ForteBio) and GraphPad prism 9 (Graphstats Technologies). […]” for “datasets.”

[6] = target: T1, Avi-tagged NFR5 (residues 276-595, …); assay: bio-layer interferometry; Avi-tagged NFR5 WT immobilised on streptavidin biosensors, NFR5 2E in solution at 0.07-3.6 mg/mL
Protocol: as §3
as §2, with “datasets. Data was processed and analyzed in FortéBio Data Analysis 7 (Molecular devices, ForteBio) and GraphPad prism 9 (Graphstats Technologies). […]” for “datasets.”

[7] = target: T1, Avi-tagged NFR5 (residues 276-595, …); assay: bio-layer interferometry; Avi-tagged NFR5 WT immobilised on streptavidin biosensors, NFR5 3E in solution at 0.07-3.6 mg/mL
Protocol: as §3
as §2, with “datasets. Data was processed and analyzed in FortéBio Data Analysis 7 (Molecular devices, ForteBio) and GraphPad prism 9 (Graphstats Technologies). […]” for “datasets.”

B1: VHH Nb200 (VHH)
VHH: QVQLVESGGGSVQAGDSLRLSCTGPGRTDGPYVMGWFRQAPEKEREFVAAISRYGSGTYYADSVRGRFTISRDNVKNTVYLQMNSLKPEDTAIYYCNRVPPVLSWGQGTQVTVSS
notes: also called Nb2NFR5
[1]
  Kd: 174 nM
[2]
  binding result: binds

B2: VHH Nb200 control (A51E Y60E V100E) (VHH)
VHH: QVQLVESGGGSVQAGDSLRLSCTGPGRTDGPYVMGWFRQAPEKEREFVAEISRYGSGTEYADSVRGRFTISRDNVKNTVYLQMNSLKPEDTAIYYCNREPPVLSWGQGTQVTVSS
notes: Negative control triple mutant of Nb200; VHHs were cloned with a C-terminal 6xHis tag; also called VHH Nb200 mutant; Nb200 A51E Y60E V100E
[3]
  binding result: no binding (tested: 5 µM)

B3: NFR5 intracellular domain (residues 276-595) (receptor)
chain: ALNRTASSAETADKLLSGVSGYVSKPNVYEIDEIMEATKDFSDECKVGESVYKANIEGRVVAVKKIKEGGANEELKILQKVNHGNLVKLMGVSSGYDGNCFLVYEYAENGSLAEWLFSKSSGTPNSLTWSQRISIAVDVAVGLQYMHEHTYPRIIHRDITTSNILLDSNFKAKIANFAMARTSTNPMMPKIDVFAFGVLLIELLTGRKAMTTKENGEVVMLWKDMWEIFDIEENREERIRKWMDPNLESFYHIDNALSLASLAVNCTADKSLSRPSMAEIVLSLSFLTQQSSNPTLERSLTSSGLDVEDDAHIVTSITAR
notes: Expressed with an N-terminal thioredoxin-6xHis-TEV fusion tag that was removed by TEV protease before use; also called NFR5 WT
[4]
  self-interaction parameter kSI: -14.6 mL/g
[5]
  binding result: binds

B4: NFR5 residues 276-595, L290E/L291E (2E) (receptor)
chain: ALNRTASSAETADKEESGVSGYVSKPNVYEIDEIMEATKDFSDECKVGESVYKANIEGRVVAVKKIKEGGANEELKILQKVNHGNLVKLMGVSSGYDGNCFLVYEYAENGSLAEWLFSKSSGTPNSLTWSQRISIAVDVAVGLQYMHEHTYPRIIHRDITTSNILLDSNFKAKIANFAMARTSTNPMMPKIDVFAFGVLLIELLTGRKAMTTKENGEVVMLWKDMWEIFDIEENREERIRKWMDPNLESFYHIDNALSLASLAVNCTADKSLSRPSMAEIVLSLSFLTQQSSNPTLERSLTSSGLDVEDDAHIVTSITAR
notes: Mutation numbers follow full-length NFR5; also called NFR5 2E; alphaA 2E
[6]
  binding result: no binding (tested: 3.6 mg/mL)
[4]
  self-interaction parameter kSI: -10.8 mL/g

B5: NFR5 residues 276-595, V294E Y297E V298E (3E) (receptor)
chain: ALNRTASSAETADKLLSGESGEESKPNVYEIDEIMEATKDFSDECKVGESVYKANIEGRVVAVKKIKEGGANEELKILQKVNHGNLVKLMGVSSGYDGNCFLVYEYAENGSLAEWLFSKSSGTPNSLTWSQRISIAVDVAVGLQYMHEHTYPRIIHRDITTSNILLDSNFKAKIANFAMARTSTNPMMPKIDVFAFGVLLIELLTGRKAMTTKENGEVVMLWKDMWEIFDIEENREERIRKWMDPNLESFYHIDNALSLASLAVNCTADKSLSRPSMAEIVLSLSFLTQQSSNPTLERSLTSSGLDVEDDAHIVTSITAR
notes: Mutation numbers follow full-length NFR5; also called NFR5 3E; alphaA' 3E
[7]
  binding result: no binding (tested: 3.6 mg/mL)
[4]
  self-interaction parameter kSI: -7.1 mL/g
